Tests used:
[1] = molecular target: integrin αvβ3 (on rat osteoclast precursors) (rat); test: cell-based or functional assay
[2] = molecular target: platelet glycoprotein αIIbβ3 (on human platelets) (human) (UniProt P08514); test: cell-based or functional assay
[3] = molecular target: integrin αIIbβ3 (on CHO-αIIbβ3 cells) (UniProt P08514); test: cell adhesion inhibition: CHO-αIIbβ3 cells on coated fibrinogen

Substance	Osteoclastogenesis IC50 [1]	Platelet aggregation IC50 [2]	IC50 [3]
HSA-RD (human serum albumin-RD fusion protein) (from UniProt P30403 408-475)	0.00668 µM	0.438 µM	–
HSA-RD (human serum albumin-RD fusion protein) (from UniProt P30403 408-475) (other; other documents disagree on this pair)	–	–	2.75 µM
PRGEMP (from UniProt P30403 408-475) (ligand)	68.2 µM	4.91 µM	–
PRPDDL (from UniProt P30403 408-475) (ligand; other documents disagree on this pair)	–	–	13.6 µM
AKGDWN (from UniProt P30403 408-475) (ligand)	78.4 µM	0.138 µM	–
PRPDDL (from UniProt P30403 408-475) (ligand)	–	3.53 µM	–
AKGDWN (from UniProt P30403 408-475) (ligand; other documents disagree on this pair)	–	–	0.069 µM

From US20110166072A1
